Laboratory results reported in paper PMC8123127, “Structural Bases for the Synergistic Inhibition of Human Thymidylate Synthase and Ovarian Cancer Cell Growth by Drug Combinations” (Cancers, 2021).

Columns and labels:
purified protein [1] = substrate: Nc1nc2c(c(=O)[nH]1)N1CN(c3ccc(C(=O)N[C@@H](CCC(=O)O)C(=O)O)cc3)CC1CN2; assay: purified protein; conditions: dUMP cofactor site in the catalytic pocket; varied: cofactor
purified protein [2] = substrate: O=c1ccn([C@H]2C[C@H](O)[C@@H](COP(=O)(O)O)O2)c(=O)[nH]1; assay: purified protein; type: biochemical, Homo sapiens; conditions: mTHF substrate site in the catalytic pocket

B1: human thymidylate synthase (hTS) (Homo sapiens) (protein)
chain: MPVAGSELPRRPLPPAAQERDAEPRPPHGELQYLGQIQHILRCGVRKDDRTGTGTLSVFGMQARYSLRDEFPLLTTKRVFWKGVLEELLWFIKGSTNAKELSSKGVKIWDANGSRDFLDSLGFSTREEGDLGPVYGFQWRHFGAEYRDMESDYSGQGVDQLQRVIDTIKTNPDDRRIIMCAWNPRDLPLMALPPCHALCQFYVVNSELSCQLYQRSGDMGLGVPFNIASYALLTYMIAHITGLKPGDFIHTLGDAHIYLNHIEPLKIQLQREPRPFPKLRILRKVEKIDDFKAEDFQIEGYNPHPTIKMEMAV
notes: His6-tag protein (non-cleavable N-terminal His6-tag)
What does the source list for B1?
Km (purified protein [1]): 5 µM; Km (purified protein [2]): 10 µM
